{
  "source": "patent US20070128190A1",
  "about": "(GLENMARK PHARMACEUTICALS S A, published 2007)",
  "key": {"[1]": {"target": "human α2 integrin with endogenous hamster β1 on CHO cells (human; hamster)", "sequence (P17301 30-1181 E534K)": "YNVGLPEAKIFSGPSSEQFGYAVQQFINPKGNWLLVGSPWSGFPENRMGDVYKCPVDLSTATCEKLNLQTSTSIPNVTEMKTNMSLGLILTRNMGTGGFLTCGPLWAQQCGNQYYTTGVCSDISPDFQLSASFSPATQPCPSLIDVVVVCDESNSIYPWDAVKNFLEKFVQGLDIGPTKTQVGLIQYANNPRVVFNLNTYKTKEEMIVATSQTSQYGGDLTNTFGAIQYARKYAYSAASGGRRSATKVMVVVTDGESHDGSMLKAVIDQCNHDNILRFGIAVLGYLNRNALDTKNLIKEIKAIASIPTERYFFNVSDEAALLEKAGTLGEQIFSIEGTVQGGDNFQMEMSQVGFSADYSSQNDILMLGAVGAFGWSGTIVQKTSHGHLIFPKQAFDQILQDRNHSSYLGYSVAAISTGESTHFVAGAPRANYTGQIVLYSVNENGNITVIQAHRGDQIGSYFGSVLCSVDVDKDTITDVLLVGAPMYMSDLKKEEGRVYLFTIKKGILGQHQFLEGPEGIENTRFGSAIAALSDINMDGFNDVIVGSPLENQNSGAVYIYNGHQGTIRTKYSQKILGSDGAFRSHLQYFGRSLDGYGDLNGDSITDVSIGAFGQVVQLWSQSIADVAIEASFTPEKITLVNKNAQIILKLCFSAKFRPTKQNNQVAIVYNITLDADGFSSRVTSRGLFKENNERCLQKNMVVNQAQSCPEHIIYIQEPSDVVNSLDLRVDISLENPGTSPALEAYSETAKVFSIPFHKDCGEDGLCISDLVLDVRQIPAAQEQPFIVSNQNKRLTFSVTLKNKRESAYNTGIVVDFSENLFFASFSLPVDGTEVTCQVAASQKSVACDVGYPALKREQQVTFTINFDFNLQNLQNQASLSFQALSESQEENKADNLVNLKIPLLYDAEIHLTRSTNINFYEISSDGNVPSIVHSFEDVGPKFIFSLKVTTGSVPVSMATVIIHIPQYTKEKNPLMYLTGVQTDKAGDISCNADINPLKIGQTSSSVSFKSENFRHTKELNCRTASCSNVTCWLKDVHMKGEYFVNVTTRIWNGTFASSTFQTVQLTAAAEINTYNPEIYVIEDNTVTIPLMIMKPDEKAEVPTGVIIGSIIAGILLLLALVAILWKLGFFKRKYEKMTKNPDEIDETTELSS", "assay": "cell-based or functional assay"}, "[2]": {"target": "T1, GST-human α2 I domain fusion protein (human, UniProt P17301 153-368)", "T1 construct": "the reverse primer ends at ...SIEGTV; also called GST-α2 I domain; hα2I; not shown: glutathione S-transferase tag encoded by vector pGEX-2TK", "T1 sequence": "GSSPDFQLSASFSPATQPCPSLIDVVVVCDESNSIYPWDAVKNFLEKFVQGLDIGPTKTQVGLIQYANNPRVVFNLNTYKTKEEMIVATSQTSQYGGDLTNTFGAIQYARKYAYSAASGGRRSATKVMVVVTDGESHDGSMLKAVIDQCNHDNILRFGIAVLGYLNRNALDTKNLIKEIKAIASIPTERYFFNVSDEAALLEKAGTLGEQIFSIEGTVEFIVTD", "assay": "ELISA, GST fusion protein on immobilized TMC-2206 (Kd apparent)", "description": "(§1) The fusion proteins were then expressed and purified as described above for the human GST-α2 I domain fusion protein. […] Therefore, these and the primate fusion proteins were further purified by size exclusion chromatography on a Sephadex 75 10/30 (GE-Amersham) column (primate) by FPLC on an Akta-Basic FPLC system (GE-Amersham) to yield a monomeric fraction. […] The Kᵢ assays were performed as described above in Example 2. […] Plates were sealed and coating occurred overnight at 4° C. The next morning, the plates were washed twice with TBS solution and then blocked using 200 μL of the blocking solution described above for 1 hour at room temperature with shaking. After blocking, the blocking solution was removed but the wells were not washed. Instead, a serial dilution of GST fusion protein was made, added to the wells and then incubated for 2 hours at room temperature with shaking. The wells were then aspirated and a TBS washing buffer applied for 5 minutes at room temperature. The washing step was repeated twice more before the secondary antibody was applied. The secondary antibody step consisted of Amersham's HRP-conjugated rabbit anti-GST antibody diluted 1:2000 in blocking buffer. One hundred μL of secondary antibody was added to each well and incubated at room temperature for 1.5 hours with shaking. The wells were again aspirated and washed three times with wash buffer before adding the substrate reaction mixture. One hundred μL of substrate reaction mixture (1:1 dilution of TMB kit) was then added to each well for 6 minutes. The reaction was stopped by adding 100 μL of 0.1M H₂SO₄. The reaction within the wells was then read and quantified by spectrophotometric absorption using the Molecular Dynamics plate reader and associated Softmax software, respectively. Kd values were then estimated from the EC₅₀ values using Prism software (Graphpad, Calif.)."}, "[3]": {"target": "T2, human platelet α2β1 integrin (immobilized on microtiter plates) (human, UniProt P17301 30-1181; P05556 21-798)", "T2 construct": "plates custom-coated with human platelet α2β1 by GTI Inc; also called immobilized α2β1 integrin; α2β1-coated plates", "T2 sequence (P17301 30-1181 E534K limits assumed, chain 1 of 2)": "as the sequence (P17301 30-1181 E534K) above", "T2 sequence (P05556 21-798 limits assumed, chain 2 of 2)": "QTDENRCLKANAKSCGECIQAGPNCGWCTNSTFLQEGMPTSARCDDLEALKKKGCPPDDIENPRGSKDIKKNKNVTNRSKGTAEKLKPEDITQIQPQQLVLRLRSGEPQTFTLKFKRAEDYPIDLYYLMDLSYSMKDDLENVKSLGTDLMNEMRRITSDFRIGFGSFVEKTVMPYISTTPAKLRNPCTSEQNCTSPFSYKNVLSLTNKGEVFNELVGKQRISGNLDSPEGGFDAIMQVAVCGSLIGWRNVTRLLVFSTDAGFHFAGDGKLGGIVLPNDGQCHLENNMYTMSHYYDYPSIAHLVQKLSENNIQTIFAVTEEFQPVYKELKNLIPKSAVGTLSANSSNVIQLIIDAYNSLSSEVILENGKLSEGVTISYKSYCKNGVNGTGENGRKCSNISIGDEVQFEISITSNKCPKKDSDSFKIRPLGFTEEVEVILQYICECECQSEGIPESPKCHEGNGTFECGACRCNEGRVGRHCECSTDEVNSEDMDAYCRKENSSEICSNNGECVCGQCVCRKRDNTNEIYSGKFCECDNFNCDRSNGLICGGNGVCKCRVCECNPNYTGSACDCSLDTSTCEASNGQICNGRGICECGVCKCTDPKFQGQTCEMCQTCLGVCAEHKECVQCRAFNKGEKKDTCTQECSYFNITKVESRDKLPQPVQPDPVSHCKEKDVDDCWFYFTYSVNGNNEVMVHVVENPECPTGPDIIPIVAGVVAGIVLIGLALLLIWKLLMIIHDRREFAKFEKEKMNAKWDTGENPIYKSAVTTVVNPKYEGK", "assay": "competition with Eu-TMC-2206 on human platelet α2β1-coated plate", "description": "Each labeled antibody mixture was applied to a separate PD-10 column (GE Biosciences, Piscataway, N.J.) pre-equilibrated with Running Buffer (50 mM Tris, pH 7.4 and 138 mM NaCl). Fractions (0.5 mL) were collected and assayed for total protein (Bradford reagent; Bio-Rad Laboratories, Hercules, Calif.) using a SpectraMax 384 absorbance plate reader and for europium after 1:10.000 dilution in DELFIA Enhancement Solution (Perkin-Elmer) by time-resolved fluorescence (TRF) using a Victor2 multi-label plate reader (Perkin Elmer). The fractions that were positive for both protein and Eu label were pooled and applied to new PD-10 columns and samples collected and assayed for total protein and for europium content by TRF calibrated against a europium standard solution (Perkin-Elmer) to calculate the fluor: protein ratio. […] After incubating the sealed plates for 1 hr at 37° C. to allow binding to reach equilibrium, 2 μL samples were transferred from each well into a fresh well containing DELFIA Enhancement Solution (100 μL/well; Perkin-Elmer) for the measurement of free (unbound) label. Enhancement Solution (100 μL/well) was added to the emptied wells for the measurement of bound label. The plate was shaken (Titer Plate Shaker speed setting of 5 for 5 minutes at room temperature) and time-resolved fluorescent (TRF) intensities were read using a Victor2 multi-label plate reader (Perkin-Elmer Wallac, Boston, Mas.)."}, "[4]": {"target": "T1, GST-human α2 I domain fusion protein", "assay": "ELISA, GST fusion protein on immobilized TMC-2206, Kd estimated from EC50", "description": "as §1, with “One hundred μL of secondary antibody was added to each well and incubated at room temperature for 1.5 hours with shaking. The wells were again aspirated and washed three times with wash buffer before adding the substrate reaction mixture. One hundred μL of substrate reaction mixture (1:1 dilution of TMB kit) was then added to each well for 6 minutes. The reaction was stopped by adding 100 μL of 0.1M H₂SO₄.” left out, “Kd values were then estimated from the EC₅₀ values using Prism software (Graphpad, Calif.).” left out"}, "[5]": {"target": "T3, GST-rhesus α2 I domain fusion protein (rhesus monkey, UniProt P17301 153-368 (human entry))", "T3 construct": "also called rhesus GST-α2 I; not shown: glutathione S-transferase tag encoded by vector pGEX-2TK", "T3 sequence": "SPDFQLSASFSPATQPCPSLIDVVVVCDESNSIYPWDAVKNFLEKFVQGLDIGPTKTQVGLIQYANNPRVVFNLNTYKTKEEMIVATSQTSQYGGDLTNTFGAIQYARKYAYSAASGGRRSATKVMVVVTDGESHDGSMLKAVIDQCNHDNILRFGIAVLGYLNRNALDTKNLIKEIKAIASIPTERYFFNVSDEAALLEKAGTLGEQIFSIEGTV", "assay": "ELISA, GST fusion protein on immobilized TMC-2206, Kd estimated from EC50", "description": "as §1, with “One hundred μL of secondary antibody was added to each well and incubated at room temperature for 1.5 hours with shaking. The wells were again aspirated and washed three times with wash buffer before adding the substrate reaction mixture. One hundred μL of substrate reaction mixture (1:1 dilution of TMB kit) was then added to each well for 6 minutes. The reaction was stopped by adding 100 μL of 0.1M H₂SO₄.” left out, “Kd values were then estimated from the EC₅₀ values using Prism software (Graphpad, Calif.).” left out"}, "[6]": {"target": "T2, human platelet α2β1 integrin …", "assay": "equilibrium binding of Eu-TMC-2206 to human platelet α2β1-coated plate, Scatchard", "description": "Wells in a 96 well microtiter plate were coated with platelet α2β1-integrin (custom-coated with human platelet α2β1 by GTI Inc., Wis.) and then blocked with nonfat milk. […] After concentration in prewashed MicroSep concentrators (30-kDa cutoff; Pall Life Sciences at 9500 rpm (7000×g) in a JA-20 rotor (Beckman Instruments, Inc.) for 20 minutes at 4° C.), antibodies were adjusted to 4.0 mg/mL with PBS containing a final concentration of 100 mM NaHCO₃, pH 9.3. The mAb/bicarbonate mixture (0.250 mL) was gently mixed into a vial containing 0.2 mg N¹-(p-isothiocyanatobenzyl)-diethylenetriamine-N¹,N²,N³N³-tetraacetic acid chelated with Eu³⁺ (Eu-N1-ITC; Perkin Elmer Life Sciences) and reacted overnight at 4° C. without stirring. Each labeled antibody mixture was applied to a separate PD-10 column (GE Biosciences, Piscataway, N.J.) pre-equilibrated with Running Buffer (50 mM Tris, pH 7.4 and 138 mM NaCl). Fractions (0.5 mL) were collected and assayed for total protein (Bradford reagent; Bio-Rad Laboratories, Hercules, Calif.) using a SpectraMax 384 absorbance plate reader and for europium after 1:10.000 dilution in DELFIA Enhancement Solution (Perkin-Elmer) by time-resolved fluorescence (TRF) using a Victor2 multi-label plate reader (Perkin Elmer). […]"}},
  "data": [
    {"binder": "TMC-2206 (antibody, mouse IgG1, V domains shown, murine IgG1/κ secreted by hybridoma BHA2.1; labelled with Eu-N1-ITC where used as tracer; also called BHA2.1) VH: QVQLKESGPGLVAPSQSLSITCTVSGFSLTNYGIHWVRQPPGKGLEWLGVIWARGFTNYNSALMSRLIITKDNSQSQVFLKMNSLQPDDSATYFCARANDGVYYAMDYWGQGTSVTVSS VL: QFVLTQSPAFLSASPGEKVTMTCSANSSVNYIHWYQQKSGTSPKKWIYDTSKLASGVPVRFSGSGSGTSYSLTISSMETEDAATYYCQQWTTNPLTFGAGTRVELK", "values": [
      {"measurement": "EC50 (nM), cell adhesion to collagen assay", "setting": "[1]", "value": 1.03, "unit": "nM"},
      {"measurement": "Kd", "setting": "[2]", "value": 0.31, "unit": "nM"},
      {"measurement": "Ki", "setting": "[3]", "value": 0.22, "unit": "nM"},
      {"measurement": "Kd", "setting": "[4]", "value": 0.18, "unit": "nM"},
      {"measurement": "Kd", "setting": "[5]", "value": 0.04, "unit": "nM"},
      {"measurement": "Kd", "setting": "[6]", "value": 0.374, "unit": "nM"}
    ]}
  ]
}
